# According to patent publication US20260327324 (published 2026):
# Substitutions are numbered along the chain they refer to. Names and notes keep the numbering of the source.
# B1: PRO3477 (37-20-B03-sc09.1 human consensus LCDR2) (antibody)
# chain: DIQMTQSPASLSASVGDRVTITCQASQSIGTYLAWYQQKPGKPPKLLIYAASSLQSGVPSRFSGSGSGTDFTLTISSLQPEDFATYYCQSNFYSDSTTIGPNAFGTGTKVTVLGGGGGSGGGGSGGGGSGGGGSEVQLVESGGGLVQPGGSLRLSCAASGFSFNSDYWIYWVRQAPGKGLEWIASIYGGSSGNTQYASWAQGRFTISRDNSKNTVYLQMNSLRAEDTAVYFCARGYVDYGGATDLWGQGTLVTVSS
# B2: PRO3478 (37-20-B03-sc09.1 Y42S human consensus LCDR2) (antibody)
# chain: B1 chain with Y170S
# B3: PRO3732 (54-21-H03-sc01 A67G_S68G) (antibody)
# chain: DIQMTQSPSSLSASVGDRVTITCQASESIYSSLAWYQQKPGKAPKLLIYLGGTLASGVPSRFSGSGSGTDFTLTISSLQPEDFATYYCQSTDYTTSTHRNSFGTGTKVTVLGGGGGSGGGGSGGGGSGGGGSEVQLVESGGGLVQPGGSLRLSCAASGFSFSTTYYMCWVRQAPGKGLEWIGCTNTASSVRTYYATWAKGRFTISRDNSKNTVYLQMNSLRAEDTAVYYCARDMGFADYALNLWGQGTLVTVSS
# B4: PRO1922 (54-21-H03-sc01) (antibody)
# chain: B3 chain with G51A, G52S
# B5: PRO3733 (54-32-A07-sc06 G51C_T141C A67G_S68G) (antibody)
# chain: ALQMTQSPSSLSARVGDRVTIKCQASQSISNYLAWYQQKPGKPPKFLIYDGGDLASGVPSRFSGSGSGRDFTLTISSLQPEDFATYYCQQVYDSNNVENVFGCGTKVTVLGGGGGSGGGGSGGGGSGGGGSQSQLVESGGGLVQPGGSLRLSCAVSGFSLSSYAMGWVRQAPGKCLEYIGYISKIGTTYYASWAKGRFTISKDNSKNTVYLQMNSLRAEDTAVYFCARGSSSGGYLDDGFDPWGQGTLVTVSS
# B6: PRO2309 (54-32-A07-sc06 G51C_T141C) (antibody)
# chain: B5 chain with G51A, G52S
# B7: PRO3718 (28-21-D09-sc04 A67G_S68G) (antibody)
# chain: DIQMTQSPSSLSASVGDRVTITCQSSQSVFSNNYLAWFQQKPGQSPKRLIYSGGTLASGVPSRFSGSGSGTDFTLTISSLQPEDFATYYCLGSYACSSADCYVFGTGTKVTVLGGGGGSGGGGSGGGGSGGGGSEVQLVESGGGLVQPGGSLRLSCAASGFSLSSYDMSWVRQAPGKGLAWIGASYASGPTYYASWAKGRFTISRDNSKNTVYLQMNSLRAEDTATYFCARGGWTGTSHSNIWGQGTLVTVSS
# B8: PRO2781 (28-21-D09-sc04) (antibody)
# chain: B7 chain with G53A, G54S
# B9: PRO2155 (19-04-A10-sc02) (antibody)
# chain: AFELTQSPSSLSASVGDRVTITCQASESINSRLAWYQQKPGQPPKLLIYDASDLTSGVPSRFSGSGSGTDFTLTISSLQPEDFATYYCQGYGGSSTTTFGGGTKLTVLGGGGGSGGGGSGGGGSGGGGSEVQLVESGGGLVQPGGSLRLSCAASGFSLSSYAMNWVRQAPGKGLEWIGHINAGDIAYYATWAKGRFTISRDNSKNTVYLQMNSLRAEDTAVYFCARGAGGFSTGPFKLWGQGTLVTVSS
# B10: PRO4112 (19-04-A10-sc11) (antibody)
# chain: AFQLTQSPSSLSASVGDRVTITCQASESINSRLAWYQQKPGKPPKLLIYDASDLTSGVPSRFSGRGSGTDFTLTISSLQPEDFATYYCQGYGGSSTTTFGCGTKVTVLGGGGGSGGGGSGGGGSGGGGSQQLVESGGGLVQPGGSLRLSCAASGFSLSSYAMNWVRQAPGKCLEWIGHINAGDIAYYATWAKGRFTISKDNSKNTVYLQMNNLRAEDSAVYFCARGAGGFSTGPFKLWGQGTLVKVSS
# B11: PRO4113 (19-04-A10-sc12) (antibody)
# chain: B10 chain with Q131S, L132V, N212S
# B12: PRO1434 (33-03-G02 Q108A_G109A) (antibody)
# chain: DIQMTQSPSSLSASVGDRVTITCQASQSINDYLAWYQQKPGKAPKLLIYKASTLASGVPSRFSGSGSGTDFTLTISSLQPEDFATYYCQAAYIITDIDNVFGTGTKVTVLGGGGGSGGGGSGGGGSGGGGSQVQLQESGPGLVKPSETLSLTCKVSGFSFSSGYDMCWIRQPPGKGLEWIGCVVAGSVDITYYASWAKGRVTISVDSSKNQFSLKLSSVTAADTAVYYCARKDAYSDAFNLWGQGTLVTVSS
# B13: PRO3725 (33-03-G02 Q108A_G109A A67G_F68G) (antibody)
# chain: B12 chain with A51G, S52G
# B14: PRO1347 (37-20-B03 sc09-IF) (antibody)
# chain: IQMTQSPASLSASVGDRVTITCQASQSIGTYLAWYQQKPGKPPKLLIYRAFILASGVPSRFSGSGSGTDFTLTISSLQPEDFATYYCQSNFYSDSTTIGPNAFGTGTKVTVLGGGGGSGGGGSGGGGSGGGGSEVQLVESGGGLVQPGGSLRLSCAASGFSFNSDYWIYWVRQAPGKGLEWIACIYGGSSGNTQYASWAQGRFTISRDNSKNTVYLQMNSLRAEDTAVYFCARGYVDYGGATDLWGQGTLVTVSS
# B15: PRO4125 (37-20-B03 sc17 A67G_F68G) (antibody)
# chain: DIQMTQSPSSLSASVGDRVTITCQASQSIGTYLAWYQQKPGKPPKLLIYRGGILASGVPSRFSGSGSGTDFTLTISSLQPEDFATYYCQSNFYSDSTTIGPNAFGTGTKVTVLGGGGGSGGGGSGGGGSGGGGSQSLVESGGGLVQPGGSLRLSCAASGFSFNSDYWISWVRQAPGKGLEWIASIYGGSSGNTQYASWAQGRFTISKDNSKNTVYLQMNSLRAEDTAVYFCARGYVDYGGATDLWGQGTLVTVSS
# B16: PRO3735 (55-38-D07-sc02 A67G_S68G) (antibody)
# chain: DVQMTQSPSSLSASVGDRVTITCRASENIYSGLAWYQQKPGKPPKLLIYRGGTLASGVSSRFSGSGSGTDFTLTISSLQPEDFATYYCQGGYYSSSSTYIAFGTGTKVTVLGGGGGSGGGGSGGGGSGGGGSQSQVVESGGGLVQPGGSLRLSCAVSGFDLSSYAVSWVRQAPGKGLEWIGIIYPRANTYYASWAKGRFTISKDNSKNTVYLQMNSLRAEDTAVYFCARDRYDSGAYLYTTYFNLWGQGTLVTVSS
# B17: PRO2060 (55-38-D07-sc02) (antibody)
# chain: VQMTQSPSSLSASVGDRVTITCRASENIYSGLAWYQQKPGKPPKLLIYRASTLASGVSSRFSGSGSGTDFTLTISSLQPEDFATYYCQGGYYSSSSTYIAFGTGTKVTVLGGGGGSGGGGSGGGGSGGGGSQSQVVESGGGLVQPGGSLRLSCAVSGFDLSSYAVSWVRQAPGKGLEWIGIIYPRANTYYASWAKGRFTISKDNSKNTVYLQMNSLRAEDTAVYFCARDRYDSGAYLYTTYFNLWGQGTLVTVSS
# B18: PRO2062 (55-39-G02-sc02) (antibody)
# chain: AQQLTQSPSSLSASVGDRVTITCQASQNVWNNNYLSWFQQKPGKPPKLLIVTASTLASGVSSRFSGSGSGTDFTLTISSLQPEDFATYYCAGGFSGEIRAFGTGTKVTVLGGGGGSGGGGSGGGGSGGGGSQSQLVESGGGLVQPGGSLRLSCAVSGLSLSRNAMSWVRQAPGKGLEWIGIILTSGSTYYASWAKGRFTISKDNSKNTVYLQMNSLRAEDTAVYFCVRGIASSSLKSFWGQGTLVTVSS
# B19: PRO3734 (55-39-G02-sc02 A67G_S68G) (antibody)
# chain: B18 chain with A53G, S54G
# B20: PRO4139 (55-38-D07-sc09 A67G_S68G) (antibody)
# chain: DVQMTQSPSSLSASVGDRVTITCRASENIYSGLAWYQQKPGKPPKLLIYRGGTLASGVSSRFSGSGSGTDFTLTISSLQPEDFATYYCQGGYYSSSSTYIAFGTGTKVTVLGGGGGSGGGGSGGGGSGGGGSQSVVESGGGLVQPGGSLRLSCAVSGFDLSSYAVSWVRQAPGKGLEWIGIIYPRANTYYASWAKGRFTISKDNSKNTVYLQMNSLRAEDSAVYFCARDRYDSGAYLYTTYFNLWGQGTLVKVSS
# B21: PRO4135 (55-38-D07-sc09) (antibody)
# chain: B20 chain with G51A, G52S
# B22: PRO4143 (55-38-D07-sc09 G51C A67G_S68G_T141C) (antibody)
# chain: B20 chain with T104C, G175C
# Target: PD-L1 (UniProt Q9NZQ7)
# Sequence (Q9NZQ7 19-238): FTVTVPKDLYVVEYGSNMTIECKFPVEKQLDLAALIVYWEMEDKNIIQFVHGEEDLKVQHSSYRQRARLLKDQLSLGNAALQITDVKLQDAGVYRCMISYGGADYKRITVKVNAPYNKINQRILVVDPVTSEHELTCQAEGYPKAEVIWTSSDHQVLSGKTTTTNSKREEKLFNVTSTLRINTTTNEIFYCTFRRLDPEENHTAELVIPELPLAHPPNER
# Experiment: SPR
row,Binder,binding result
1,B1,no binding
2,B2,no binding

# Target: T1, MSLN (UniProt Q13421)
# T1 chain: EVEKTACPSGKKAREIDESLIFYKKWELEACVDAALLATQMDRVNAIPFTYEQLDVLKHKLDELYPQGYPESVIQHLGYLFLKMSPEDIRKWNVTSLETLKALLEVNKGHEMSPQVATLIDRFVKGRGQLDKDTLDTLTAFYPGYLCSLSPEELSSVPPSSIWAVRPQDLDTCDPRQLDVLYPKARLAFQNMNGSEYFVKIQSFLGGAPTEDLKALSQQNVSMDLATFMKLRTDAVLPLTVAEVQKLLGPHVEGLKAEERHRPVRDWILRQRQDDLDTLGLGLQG
# Experiment: SPR
row,Binder,Kd [nM]
1,B3,0.172
2,B4,0.151
3,B5,1.58
4,B6,0.561

# Target: T2, CD3e (UniProt P07766)
# T2 chain: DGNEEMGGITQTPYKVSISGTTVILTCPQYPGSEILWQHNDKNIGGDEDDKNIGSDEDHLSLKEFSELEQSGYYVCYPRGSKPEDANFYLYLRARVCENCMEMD
# Experiment: SPR
row,Binder,Kd [nM]
1,B7,5.2
2,B8,5.88

# Target: HSA (human, UniProt P02768)
# Experiment: SPR
row,Binder,Kd [nM]
1,B9,2.62
2,B10,0.174
3,B11,0.0901

# Target: PD-L1 (UniProt Q9NZQ7)
# Experiment: SPR
# Remark: another data set of the same source
row,Binder,Kd [nM]
1,B12,491
2,B13,491
3,B14,0.0109
4,B15,0.196

# Target: ROR1 (UniProt Q01973)
# Sequence (Q01973 30-403): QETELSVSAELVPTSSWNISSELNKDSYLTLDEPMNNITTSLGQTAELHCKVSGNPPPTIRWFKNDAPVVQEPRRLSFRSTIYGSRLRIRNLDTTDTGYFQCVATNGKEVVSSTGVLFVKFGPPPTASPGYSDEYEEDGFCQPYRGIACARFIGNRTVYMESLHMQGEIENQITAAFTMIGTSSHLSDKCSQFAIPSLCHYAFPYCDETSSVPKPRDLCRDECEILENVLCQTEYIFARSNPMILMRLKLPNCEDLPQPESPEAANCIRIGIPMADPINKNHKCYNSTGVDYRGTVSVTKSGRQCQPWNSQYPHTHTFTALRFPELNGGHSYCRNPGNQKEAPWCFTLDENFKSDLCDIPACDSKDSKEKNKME
# Experiment: SPR
row,Binder,Kd [nM]
1,B16,0.336
2,B17,0.119
3,B18,0.108
4,B19,0.12
5,B20,0.212
6,B21,0.122
7,B22,0.631
